Data on three substances can be found in US6632672.

This series addresses T1, phiC31 integrase (Streptomyces phage phiC31) (UniProt Q9T221).
T1 sequence: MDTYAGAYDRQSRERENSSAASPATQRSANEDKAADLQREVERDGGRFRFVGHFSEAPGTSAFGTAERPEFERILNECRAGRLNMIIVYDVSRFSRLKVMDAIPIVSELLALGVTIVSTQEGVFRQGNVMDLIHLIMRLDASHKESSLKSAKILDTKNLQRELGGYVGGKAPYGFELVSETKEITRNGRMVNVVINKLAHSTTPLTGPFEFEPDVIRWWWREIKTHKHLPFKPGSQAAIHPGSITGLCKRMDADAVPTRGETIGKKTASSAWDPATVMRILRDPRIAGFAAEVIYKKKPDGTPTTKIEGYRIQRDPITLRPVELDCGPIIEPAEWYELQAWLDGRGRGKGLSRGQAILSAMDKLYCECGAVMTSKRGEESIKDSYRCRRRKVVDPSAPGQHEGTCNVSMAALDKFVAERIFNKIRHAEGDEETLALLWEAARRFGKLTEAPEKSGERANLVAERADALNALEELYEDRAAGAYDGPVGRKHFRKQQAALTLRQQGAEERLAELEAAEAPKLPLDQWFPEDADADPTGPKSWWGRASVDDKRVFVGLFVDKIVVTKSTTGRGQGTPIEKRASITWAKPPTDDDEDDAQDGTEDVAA
In words: cell_activity.

For the substance attP full length (221 bp), the activity is, setting by setting: (intramolecular attB x attP recombination in human 293 cells, SE 2.32%, 16 experiments) 50.6%; (intramolecular integration with attB in E. coli, all colonies white) 100%.

The substance attB34 had a binding signal (E. coli, relative to full-length attB) of 100%.

Regarding attB full length (pBCPB+), the activity (bimolecular integration of attP donor into EBV plasmid in human 293 cells, corrected for transfection) stood at 7.5% and the activity (intramolecular integration with attP in E. coli, all colonies white) came out at 100%.
